For data set [1], the target named is T1, MBP-CTCF(F4-F8) (Homo sapiens, UniProt P49711 351-489).
T1 sequence: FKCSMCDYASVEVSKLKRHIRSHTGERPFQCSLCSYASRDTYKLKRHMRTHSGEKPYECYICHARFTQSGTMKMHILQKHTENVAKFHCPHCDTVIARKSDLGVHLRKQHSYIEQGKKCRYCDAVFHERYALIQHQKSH
The data set is described as follows: fluorescence anisotropy; 100 uM ZnCl2; apparent KD; 20 mM Tris pH 8, 200 mM KCl, 100 uM ZnCl2, 1 mM DTT, 25 C; 10 nM dsDNA, MBP-CTCF up to 34.5 uM. To be noted: protein: recombinant; tags: MBP (N-terminal, pMAL-c2g); label: 6-FAM at 5' end of reverse strand; blunt. (In general: In fluorescence polarisation assays a small probe gives low polarisation when free and higher when bound to something large.)

The target of data set [2] is T1, MBP-CTCF(F4-F8). Nature of the data set: fluorescence anisotropy; 100 uM ZnCl2; apparent KD, fit bounds fixed to WT; above top protein concentration 34.5 uM; 20 mM Tris pH 8, 200 mM KCl, 100 uM ZnCl2, 1 mM DTT, 25 C; 10 nM dsDNA, MBP-CTCF up to 34.5 uM. To be noted: protein: recombinant; tags: MBP (N-terminal, pMAL-c2g); label: 6-FAM at 5' end of reverse strand; blunt.

B1: KPNA7 exon 7 CTCF motif WT (dsDNA)
DNA 1: ATCCAGAAGGAGGCAG
DNA 2: CTGCCTCCTTCTGGAT
Consider B1, for which, in the data set with MBP-CTCF(F4-F8) [1], the Kd was found to be 1.76 ± 0.084 µM.

B2: KPNA7 exon 7 CTCF motif c.1030G>C (dsDNA)
DNA 1: ATCCAGAAGCAGGCAG
DNA 2: CTGCCTGCTTCTGGAT
Consider B2, for which the Kd with MBP-CTCF(F4-F8) [2] worked out at 76 ± 16.2 µM.

These data come from article PMC7076015, “An epilepsy-associated mutation in the nuclear import receptor KPNA7 reduces nuclear localization signal binding”.
